Publication PMC11406519

Tests used:
[1] = molecular target: GNNV-P R276A (Dragon grouper nervous necrosis virus); assay: AUC; sedimentation velocity, pH 5.0, no divalent ions; 0.25–0.4 mg/mL, 60,000 rpm, 20 °C, absorbance at 280 nm, c(s) model (SEDFIT); monomer to trimer
[2] = molecular target: GNNV-P: Dragon grouper NNV capsid protein P-domain (aa 221–338) plus the flexible linker (aa 214–220), wild type (Dragon grouper nervous necrosis virus); assay: as above

| Substance | stoichiometry N [1] | stoichiometry N [2] |
| --- | --- | --- |
| GNNV-P R276A (domain or fragment) | 3 | – |
| GNNV-P: Dragon grouper NNV capsid protein P-domain (aa 221–338) plus the flexible linker (aa 214–220), wild type (domain or fragment) | – | 3 |
